We go through six molecules from article PMC10540216, “Activity Guided Azide-methyllysine Photo-trapping for Substrate Profiling of Lysine Demethylases” (Journal of the American Chemical Society, 2023).

This test has as its system KDM4A-I71AzF. Briefly: CASI: photo-crosslinking with HEK293T cell extracts, StrepTactin enrichment and LC-MS/MS proteomics.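 Note: lysates from HEK293T cells pretreated with a KDM4 inhibitor to raise proteome methylation, affinity-purified after ±UV, gel-resolved, trypsin-digested, with exclusive unique peptides per protein averaged per condition.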 It is filed as binding, human. Particulars: sheet "Final results but with 0.01".

B1: DDX42_HUMAN (protein, UniProt Q86XP3 1-938, looked up)
ATP-dependent RNA helicase …: MNWNKGGPGTKRGFGFGGFAISAGKKEEPKLPQQSHSAFGATSSSSGFGKSAPPQLPSFYKIGSKRANFDEENAYFEDEEEDSSNVDLPYIPAENSPTRQQFHSKPVDSDSDDDPLEAFMAEVEDQAARDMKRLEEKDKERKNVKGIRDDIEEEDDQEAYFRYMAENPTAGVVQEEEEDNLEYDSDGNPIAPTKKIIDPLPPIDHSEIDYPPFEKNFYNEHEEITNLTPQQLIDLRHKLNLRVSGAAPPRPGSSFAHFGFDEQLMHQIRKSEYTQPTPIQCQGVPVALSGRDMIGIAKTGSGKTAAFIWPMLIHIMDQKELEPGDGPIAVIVCPTRELCQQIHAECKRFGKAYNLRSVAVYGGGSMWEQAKALQEGAEIVVCTPGRLIDHVKKKATNLQRVSYLVFDEADRMFDMGFEYQVRSIASHVRPDRQTLLFSATFRKKIEKLARDILIDPIRVVQGDIGEANEDVTQIVEILHSGPSKWNWLTRRLVEFTSSGSVLLFVTKKANAEELANNLKQEGHNLGLLHGDMDQSERNKVISDFKKKDIPVLVATDVAARGLDIPSIKTVINYDVARDIDTHTHRIGRTGRAGEKGVAYTLLTPKDSNFAGDLVRNLEGANQHVSKELLDLAMQNAWFRKSRFKGGKGKKLNIGGGGLGYRERPGLGSENMDRGNNNVMSNYEAYKPSTGAMGDRLTAMKAAFQSQYKSHFVAASLSNQKAGSSAAGASGWTSAGSLNSVPTNSAQQGHNSPDSPVTSAAKGIPGFGNTGNISGAPVTYPSAGAQGVNNTASGNNSREGTGGSNGKRERYTENRGSSRHSHGETGNRHSDSPRHGDGGRHGDGYRHPESSSRHTDGHRHGENRHGGSAGRHGENRGANDGRNGESRKEAFNRESKMEPKMEPKVDSSKMDKVDSKTDKTADGFAVPEPPKRKKSRWDS
Regarding B1, the “Fold change (+UV/-UV)” value was determined as 0.6.

B2: SF3A1_HUMAN (protein, UniProt Q15459 2-793, looked up)
Splicing factor 3A subunit 1: PAGPVQAVPPPPPVPTEPKQPTEEEASSKEDSAPSKPVVGIIYPPPEVRNIVDKTASFVARNGPEFEARIRQNEINNPKFNFLNPNDPYHAYYRHKVSEFKEGKAQEPSAAIPKVMQQQQQTTQQQLPQKVQAQVIQETIVPKEPPPEFEFIADPPSISAFDLDVVKLTAQFVARNGRQFLTQLMQKEQRNYQFDFLRPQHSLFNYFTKLVEQYTKILIPPKGLFSKLKKEAENPREVLDQVCYRVEWAKFQERERKKEEEEKEKERVAYAQIDWHDFVVVETVDFQPNEQGNFPPPTTPEELGARILIQERYEKFGESEEVEMEVESDEEDDKQEKAEEPPSQLDQDTQVQDMDEGSDDEEEGQKVPPPPETPMPPPLPPTPDQVIVRKDYDPKASKPLPPAPAPDEYLVSPITGEKIPASKMQEHMRIGLLDPRWLEQRDRSIREKQSDDEVYAPGLDIESSLKQLAERRTDIFGVEETAIGKKIGEEEIQKPEEKVTWDGHSGSMARTQQAAQANITLQEQIEAIHKAKGLVPEDDTKEKIGPSKPNEIPQQPPPPSSATNIPSSAPPITSVPRPPTMPPPVRTTVVSAVPVMPRPPMASVVRLPPGSVIAPMPPIIHAPRINVVPMPPSAPPIMAPRPPPMIVPTAFVPAPPVAPVPAPAPMPPVHPPPPMEDEPTSKKLKTEDSLMPEEEFLRRNKGPVSIKVQVPNMQDKTEWKLNGQVLVFTLPLTDQVSVIKVKIHEATGMPAGKQKLQYEGIFIKDSNSLAYYNMANGAVIHLALKERGGRKK
As for B2, the “Fold change (+UV/-UV)” value came out at 0.

B3: ROCK1_HUMAN (protein, UniProt Q13464 2-1354, looked up)
Rho-associated protein kinase …: STGDSFETRFEKMDNLLRDPKSEVNSDCLLDGLDALVYDLDFPALRKNKNIDNFLSRYKDTINKIRDLRMKAEDYEVVKVIGRGAFGEVQLVRHKSTRKVYAMKLLSKFEMIKRSDSAFFWEERDIMAFANSPWVVQLFYAFQDDRYLYMVMEYMPGGDLVNLMSNYDVPEKWARFYTAEVVLALDAIHSMGFIHRDVKPDNMLLDKSGHLKLADFGTCMKMNKEGMVRCDTAVGTPDYISPEVLKSQGGDGYYGRECDWWSVGVFLYEMLVGDTPFYADSLVGTYSKIMNHKNSLTFPDDNDISKEAKNLICAFLTDREVRLGRNGVEEIKRHLFFKNDQWAWETLRDTVAPVVPDLSSDIDTSNFDDLEEDKGEEETFPIPKAFVGNQLPFVGFTYYSNRRYLSSANPNDNRTSSNADKSLQESLQKTIYKLEEQLHNEMQLKDEMEQKCRTSNIKLDKIMKELDEEGNQRRNLESTVSQIEKEKMLLQHRINEYQRKAEQENEKRRNVENEVSTLKDQLEDLKKVSQNSQLANEKLSQLQKQLEEANDLLRTESDTAVRLRKSHTEMSKSISQLESLNRELQERNRILENSKSQTDKDYYQLQAILEAERRDRGHDSEMIGDLQARITSLQEEVKHLKHNLEKVEGERKEAQDMLNHSEKEKNNLEIDLNYKLKSLQQRLEQEVNEHKVTKARLTDKHQSIEEAKSVAMCEMEKKLKEEREAREKAENRVVQIEKQCSMLDVDLKQSQQKLEHLTGNKERMEDEVKNLTLQLEQESNKRLLLQNELKTQAFEADNLKGLEKQMKQEINTLLEAKRLLEFELAQLTKQYRGNEGQMRELQDQLEAEQYFSTLYKTQVKELKEEIEEKNRENLKKIQELQNEKETLATQLDLAETKAESEQLARGLLEEQYFELTQESKKAASRNRQEITDKDHTVSRLEEANSMLTKDIEILRRENEELTEKMKKAEEEYKLEKEEEISNLKAAFEKNINTERTLKTQAVNKLAEIMNRKDFKIDRKKANTQDLRKKEKENRKLQLELNQEREKFNQMVVKHQKELNDMQAQLVEECAHRNELQMQLASKESDIEQLRAKLLDLSDSTSVASFPSADETDGNLPESRIEGWLSVPNRGNIKRYGWKKQYVVVSSKKILFYNDEQDKEQSNPSMVLDIDKLFHVRPVTQGDVYRAETEEIPKIFQILYANEGECRKDVEMEPVQQAEKTNFQNHKGHEFIPTLYHFPANCDACAKPLWHVFKPPPALECRRCHVKCHRDHLDKKEDLICPCKVSYDVTSARDMLLLACSQDEQKKWVTHLVKKIPKNPPSGFVRASPRTLSTRSTANQSFRKVVKNTSGKTS
Take B3: the “Fold change (+UV/-UV)” value is 0.

B4: CYFP1_HUMAN (protein, UniProt Q7L576 1-1253, looked up)
Cytoplasmic FMR1-interacting …: MAAQVTLEDALSNVDLLEELPLPDQQPCIEPPPSSLLYQPNFNTNFEDRNAFVTGIARYIEQATVHSSMNEMLEEGQEYAVMLYTWRSCSRAIPQVKCNEQPNRVEIYEKTVEVLEPEVTKLMNFMYFQRNAIERFCGEVRRLCHAERRKDFVSEAYLITLGKFINMFAVLDELKNMKCSVKNDHSAYKRAAQFLRKMADPQSIQESQNLSMFLANHNKITQSLQQQLEVISGYEELLADIVNLCVDYYENRMYLTPSEKHMLLKVMGFGLYLMDGSVSNIYKLDAKKRINLSKIDKYFKQLQVVPLFGDMQIELARYIKTSAHYEENKSRWTCTSSGSSPQYNICEQMIQIREDHMRFISELARYSNSEVVTGSGRQEAQKTDAEYRKLFDLALQGLQLLSQWSAHVMEVYSWKLVHPTDKYSNKDCPDSAEEYERATRYNYTSEEKFALVEVIAMIKGLQVLMGRMESVFNHAIRHTVYAALQDFSQVTLREPLRQAIKKKKNVIQSVLQAIRKTVCDWETGHEPFNDPALRGEKDPKSGFDIKVPRRAVGPSSTQLYMVRTMLESLIADKSGSKKTLRSSLEGPTILDIEKFHRESFFYTHLINFSETLQQCCDLSQLWFREFFLELTMGRRIQFPIEMSMPWILTDHILETKEASMMEYVLYSLDLYNDSAHYALTRFNKQFLYDEIEAEVNLCFDQFVYKLADQIFAYYKVMAGSLLLDKRLRSECKNQGATIHLPPSNRYETLLKQRHVQLLGRSIDLNRLITQRVSAAMYKSLELAIGRFESEDLTSIVELDGLLEINRMTHKLLSRYLTLDGFDAMFREANHNVSAPYGRITLHVFWELNYDFLPNYCYNGSTNRFVRTVLPFSQEFQRDKQPNAQPQYLHGSKALNLAYSSIYGSYRNFVGPPHFQVICRLLGYQGIAVVMEELLKVVKSLLQGTILQYVKTLMEVMPKICRLPRHEYGSPGILEFFHHQLKDIVEYAELKTVCFQNLREVGNAILFCLLIEQSLSLEEVCDLLHAAPFQNILPRVHVKEGERLDAKMKRLESKYAPLHLVPLIERLGTPQQIAIAREGDLLTKERLCCGLSMFEVILTRIRSFLDDPIWRGPLPSNGVMHVDECVEFHRLWSAMQFVYCIPVGTHEFTVEQCFGDGLHWAGCMIIVLLGQQRRFAVLDFCYHLLKVQKHDGKDEIIKNVPLKKMVERIRKFQILNDEIITILDKYLKSGDGEGTPVEHVRCFQPPIHQSLASS
As for B4, the “Fold change (+UV/-UV)” value was 0.6.

B5: CBPD_HUMAN (protein, UniProt O75976 32-1380, looked up)
Carboxypeptidase D: AHIKKAEATTTTTSAGAEAAEGQFDRYYHEEELESALREAAAAGLPGLARLFSIGRSVEGRPLWVLRLTAGLGSLIPEGDAGPDAAGPDAAGPLLPGRPQVKLVGNMHGDETVSRQVLIYLARELAAGYRRGDPRLVRLLNTTDVYLLPSLNPDGFERAREGDCGFGDGGPSGASGRDNSRGRDLNRSFPDQFSTGEPPALDEVPEVRALIEWIRRNKFVLSGNLHGGSVVASYPFDDSPEHKATGIYSKTSDDEVFKYLAKAYASNHPIMKTGEPHCPGDEDETFKDGITNGAHWYDVEGGMQDYNYVWANCFEITLELSCCKYPPASQLRQEWENNRESLITLIEKVHIGVKGFVKDSITGSGLENATISVAGINHNITTGRFGDFYRLLVPGTYNLTVVLTGYMPLTVTNVVVKEGPATEVDFSLRPTVTSVIPDTTEAVSTASTVAIPNILSGTSSSYQPIQPKDFHHHHFPDMEIFLRRFANEYPNITRLYSLGKSVESRELYVMEISDNPGVHEPGEPEFKYIGNMHGNEVVGRELLLNLIEYLCKNFGTDPEVTDLVHNTRIHLMPSMNPDGYEKSQEGDSISVIGRNNSNNFDLNRNFPDQFVQITDPTQPETIAVMSWMKSYPFVLSANLHGGSLVVNYPFDDDEQGLATYSKSPDDAVFQQIALSYSKENSQMFQGRPCKNMYPNEYFPHGITNGASWYNVPGGMQDWNYLQTNCFEVTIELGCVKYPLEKELPNFWEQNRRSLIQFMKQVHQGVRGFVLDATDGRGILNATISVAEINHPVTTYKTGDYWRLLVPGTYKITASARGYNPVTKNVTVKSEGAIQVNFTLVRSSTDSNNESKKGKGASSSTNDASDPTTKEFETLIKDLSAENGLESLMLRSSSNLALALYRYHSYKDLSEFLRGLVMNYPHITNLTNLGQSTEYRHIWSLEISNKPNVSEPEEPKIRFVAGIHGNAPVGTELLLALAEFLCLNYKKNPAVTQLVDRTRIVIVPSLNPDGRERAQEKDCTSKIGQTNARGKDLDTDFTNNASQPETKAIIENLIQKQDFSLSVALDGGSMLVTYPYDKPVQTVENKETLKHLASLYANNHPSMHMGQPSCPNKSDENIPGGVMRGAEWHSHLGSMKDYSVTYGHCPEITVYTSCCYFPSAARLPSLWADNKRSLLSMLVEVHKGVHGFVKDKTGKPISKAVIVLNEGIKVQTKEGGYFHVLLAPGVHNIIAIADGYQQQHSQVFVHHDAASSVVIVFDTDNRIFGLPRELVVTVSGATMSALILTACIIWCICSIKSNRHKDGFHRLRQHHDEYEDEIRMMSTGSKKSLLSHEFQDETDTEEETLYSSKH
B5: the “Fold change (+UV/-UV)” value is recorded as 1.

B6: HACD3_HUMAN (protein, UniProt Q9P035 1-362, looked up)
Very-long-chain …: MENQVLTPHVYWAQRHRELYLRVELSDVQNPAISITENVLHFKAQGHGAKGDNVYEFHLEFLDLVKPEPVYKLTQRQVNITVQKKVSQWWERLTKQEKRPLFLAPDFDRWLDESDAEMELRAKEEERLNKLRLESEGSPETLTNLRKGYLFMYNLVQFLGFSWIFVNLTVRFCILGKESFYDTFHTVADMMYFCQMLAVVETINAAIGVTTSPVLPSLIQLLGRNFILFIIFGTMEEMQNKAVVFFVFYLWSAIEIFRYSFYMLTCIDMDWKVLTWLRYTLWIPLYPLGCLAEAVSVIQSIPIFNETGRFSFTLPYPVKIKVRFSFFLQIYLIMIFLGLYINFRHLYKQRRRRYGQKKKKIH
Turning to B6, the “Fold change (+UV/-UV)” value is 0.6667.
